According to patent US20030203372A1, “Analysis method” (priority 2000, published 2003):

Test system: primary human cell cultures (11 cell types)
Assay: Custom gene array, 11 human cell types in normoxia or hypoxia for 6 hr and 18 hr;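 on mRNA expression level, #1 HY 18 hr: cell type #1 is adipocyte from subcutaneous adult adipose tissue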;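 on mRNA expression level, #1 HY 6 hr: cell type #1 is adipocyte from subcutaneous adult adipose tissue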;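 on mRNA expression level, #1 NO: cell type #1 is adipocyte from subcutaneous adult adipose tissue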;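 on mRNA expression level, #2 HY 18 hr: cell type #2 is fetal cardiomyocyte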;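 on mRNA expression level, #2 HY 6 hr: cell type #2 is fetal cardiomyocyte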;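 on mRNA expression level, #2 NO: cell type #2 is fetal cardiomyocyte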;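 on mRNA expression level, #3 HY 6 hr: cell type #3 is human umbilical vein endothelial cells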;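 on mRNA expression level, #3 NO: cell type #3 is human umbilical vein endothelial cells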;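 on mRNA expression level, #4 HY 18 hr: cell type #4 is adult dermal fibroblast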;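 on mRNA expression level, #4 HY 6 hr: cell type #4 is adult dermal fibroblast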;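 on mRNA expression level, #4 NO: cell type #4 is adult dermal fibroblast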;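 on mRNA expression level, #6 HY 6 hr: cell type #6 is blood-derived macrophage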;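 on mRNA expression level, #6 NO: cell type #6 is blood-derived macrophage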
Type: cell-based
Conditions: for mRNA expression level, #1 HY 6 hr: cell type #1, hypoxia 6 hr; for mRNA expression level, #1 HY 18 hr: cell type #1, hypoxia 18 hr; for mRNA expression level, #1 NO: cell type #1, normoxia; for mRNA expression level, #2 HY 6 hr: cell type #2, hypoxia 6 hr; for mRNA expression level, #2 HY 18 hr: cell type #2, hypoxia 18 hr; for mRNA expression level, #2 NO: cell type #2, normoxia; for mRNA expression level, #3 HY 6 hr: cell type #3, hypoxia 6 hr; for mRNA expression level, #3 HY 18 hr: cell type #3, hypoxia 18 hr; for mRNA expression level, #3 NO: cell type #3, normoxia; for mRNA expression level, #4 HY 6 hr: cell type #4, hypoxia 6 hr; for mRNA expression level, #4 HY 18 hr: cell type #4, hypoxia 18 hr; for mRNA expression level, #4 NO: cell type #4, normoxia; for mRNA expression level, #5 HY 6 hr: cell type #5, hypoxia 6 hr; for mRNA expression level, #5 NO: cell type #5, normoxia; for mRNA expression level, #6 HY 6 hr: cell type #6, hypoxia 6 hr; for #6 HY 18 hr (mRNA expression level): cell type #6, hypoxia 18 hr; for mRNA expression level, #6 NO: cell type #6, normoxia; for #7 HY 6 hr (mRNA expression level): cell type #7, hypoxia 6 hr; for #7 HY 18 hr (mRNA expression level): cell type #7, hypoxia 18 hr; for #7 NO (mRNA expression level): cell type #7, normoxia; for #8 HY 6 hr (mRNA expression level): cell type #8, hypoxia 6 hr; for #8 HY 18 hr (mRNA expression level): cell type #8, hypoxia 18 hr; for #8 NO (mRNA expression level): cell type #8, normoxia; for #9 HY 6 hr (mRNA expression level): cell type #9, hypoxia 6 hr; for #9 HY 18 hr (mRNA expression level): cell type #9, hypoxia 18 hr; for #9 NO (mRNA expression level): cell type #9, normoxia; for #10 HY 6 hr (mRNA expression level): cell type #10, hypoxia 6 hr; for #10 HY 18 hr (mRNA expression level): cell type #10, hypoxia 18 hr; for #10 NO (mRNA expression level): cell type #10, normoxia; for #11 HY 6 hr (mRNA expression level): cell type #11, hypoxia 6 hr; for #11 HY 18 hr (mRNA expression level): cell type #11, hypoxia 18 hr; for #11 NO (mRNA expression level): cell type #11, normoxia
Method: Equivalent cultures of non-immortalized, non-transformed primary human cells of 10 distinct types, were cultured in either normoxia or were exposed to hypoxia for 6 hr and 18 hr, and gene expression changes were determined. […] Moreover, unlike the vast majority of information in the public domain relating to genes responsive to hypoxia, all of these cells were human and were cultured without any modifications following isolation from the human donors.
A non-primary cell type (#9) was used to represent neurons, since primary human neurons are difficult to source. Therefore a total of 11 cell types are compared. It should be noted that RNA from hepatocytes at the […] timepoint of hypoxia was not available for this work.
Each RNA sample was hybridised to duplicate or triplicate arrays, to ensure reproducible data, and was analysed using GeneSpring software. Data from replicate arrays were merged during analysis to generate mean values. Data normalisation was achieved per-array using the aforementioned list of control genes, such that differences in RNA labelling or hybridization due to experimental variation were corrected by referencing each gene to the mean value of the reference genes on the same array. Also, for each gene, expression values were obtained which represent the value in each experimental condition (e.g. macrophages 6 hr hypoxia) as compared to the median of value of that gene throughout the full range of experimental conditions (i.e. from all cell types). […] This is common in microarray data analysis.

[1] = cell type #1, HY (hypoxia) 6 hr
[2] = cell type #1, HY (hypoxia) 18 hr
[3] = cell type #2, HY (hypoxia) 6 hr
[4] = cell type #2, HY (hypoxia) 18 hr
[5] = cell type #3, HY (hypoxia) 6 hr
[6] = cell type #3, HY (hypoxia) 18 hr
[7] = cell type #4, HY (hypoxia) 6 hr
[8] = cell type #4, HY (hypoxia) 18 hr
[9] = cell type #5, HY (hypoxia) 6 hr
[10] = cell type #6, HY (hypoxia) 6 hr
[11] = hypoxia/normoxia induction ratio, 18 hr monocyte

B1: p1G22 (nucleic acid, listed as Homo Sapiens)
DNA: TTTTTTTTTGTTTCTGTTTTGTTTTTTCTTTTGCACTGATATATACCATACCAACATTGCAAGATGCAAAGTGTGGAAACTGGAGTTTAAATAAAATTACAAGGCAAAACTACCCCATCCCAAGTGCGGTTGCTGTACATATCTACAGTACAATTTTTGGAATGTATTGCCATTTAAGAACATAGAAACTTTCTACAGACAATTTCACATACAGAATACGTACACCTTTTAGAAAAAAAGGCAAATATTTATCTTACAGAGAGCATTGTATTTTACATTTGCCTGCACGTTTCTTTTTTCTGTTTCTTTTCTTTCTTTCTTTTTTTACATACTAGGATTTATTAAAGTGACCATAAGGTGCCCGANGCGGGTTTTCTAATGGGNAAGCAGACTGGGNTTCACCAACACAGGNGCAGGATTGGGTGGGACAGGCTTTCGGGGACCTTTCTTCCCCTGGGNCACACGGGCAGATCCGGTCCCCAAGGGCAGGNTGTTCAGCCNGGGGCTTTTNCTTTT
modifications: misc_feature 366, 384, 397, 412, 459, 491, 501, 511: n = A,T,C or G
DOWN, 18 hr mam epithelial
  HIGHEST FOLD CHANGE IN HYPOXIA (hr hypoxia + cell type): 2.38 DOWN (18 hr mam epithelial) ^ fold
[1]
  mRNA expression level: 0.78
[2]
  mRNA expression level: 0.72
Cell type #1, NO (normoxia)
  mRNA expression level: 1.14
[3]
  mRNA expression level: 2.67
[4]
  mRNA expression level: 1.41
Cell type #2, NO (normoxia)
  mRNA expression level: 2.75
[5]
  mRNA expression level: 12.7
[6]
  mRNA expression level: 8.79
Cell type #3, NO (normoxia)
  mRNA expression level: 8.35
[7]
  mRNA expression level: 1.21
[8]
  mRNA expression level: 1.01
Cell type #4, NO (normoxia)
  mRNA expression level: 1.35
[9]
  mRNA expression level: 0.70
Cell type #5, NO (normoxia)
  mRNA expression level: 0.59
[10]
  mRNA expression level: 0.63
Cell type #6, NO (normoxia)
  mRNA expression level: 0.77

B2: p1G21 (nucleic acid, listed as Homo Sapiens)
DNA: TTTTACATACTAGATTTATTAAAGTGACCATAAGTGCCGAAGCGGTTTTCTAATGGAAAGCAGACTGGATTCACAACACAGAAGCAGAATTGGTGGAACAGGCTTTCGGGAACTTTCTTCCCCTGGTCACACGGCAGATCGGTCCCCAAGGACAGGTGCTCAGCCAGGACTTTTGCTTTAAGAAGGATTTGTCTNGAGAAAGGACTAGAGAGAAATCCAGCTCAGATGTATTGCTCATTCCTCTTCAGAAGGACTGGGTNGGAATGGAGCAGGGGCTAGAGGAATCTGGAAGCTAATTCTTTTAGGCTTTTTCCAACAGAGGGAAGCAGAGGGACTTCTGGGTCTTGAAGTTTGGAGCTTACGGAGGCGA
modifications: misc_feature 195, 260: n = A,T,C or G
DOWN, 6 hr macrophage
  HIGHEST FOLD CHANGE IN HYPOXIA (hr hypoxia + cell type): 1.85 DOWN (6 hr macrophage) ^ fold
[1]
  mRNA expression level: 1.01
[2]
  mRNA expression level: 0.55
Cell type #1, NO (normoxia)
  mRNA expression level: 0.99
[3]
  mRNA expression level: 1.48
[4]
  mRNA expression level: 1.10
Cell type #2, NO (normoxia)
  mRNA expression level: 2.02
[5]
  mRNA expression level: 1.13
[6]
  mRNA expression level: 0.80
Cell type #3, NO (normoxia)
  mRNA expression level: 1.54
[7]
  mRNA expression level: 0.65
[8]
  mRNA expression level: 0.60
Cell type #4, NO (normoxia)
  mRNA expression level: 0.78
[9]
  mRNA expression level: 1.35
Cell type #5, NO (normoxia)
  mRNA expression level: 0.72
[10]
  mRNA expression level: 0.69
Cell type #6, NO (normoxia)
  mRNA expression level: 1.28

B3: p1E9 (nucleic acid, listed as Homo Sapiens)
DNA: AGACCCCCCAGGGTGCCTCCGAGAGCTGCCTCACAGAGGACTCCGACCAGGGAGACCTTCCATCCTCCTCCACCTGTTCCACCCAGAGGACGCTGATTCCACCTCCTAAAACCTGCCTACTTCAGGACTTTAAGACTCACAGTCTTCAGCCTGTTAATGATGTCTTCATGTTGAGTTTTATAGCATGACTGTTGACCTTAAGATCCATTCTCATTGCTGATAATGCTGCAGCCCTGCTGGTTTGGGCTTGCTCGAAGATTTTATTAAGGCACGAAGAAGTGAAAAACTAAGGGCTTCATTCACCATCACCAAGTATATCGAACCATATACTTGTTTGCCAAAAGGGTGGAAGGACTTTAATTCGGAAATACTTTACCTCTTAATTTGGCCATATTCAGGAGGCCTAAAAGGATTGATCCNTAATGTTATTTCACCGTGGTTTTTATTGAATGG
modifications: misc_feature 420: n = A,T,C or G
  mRNA expression level, #1 HY 6 hr: 0.89
  mRNA expression level, #1 HY 18 hr: 1.48
  mRNA expression level, #1 NO: 1.54
  mRNA expression level, #2 HY 6 hr: 1.80
  mRNA expression level, #2 HY 18 hr: 1.53
  mRNA expression level, #2 NO: 1.18
  mRNA expression level, #3 HY 6 hr: 0.82
  mRNA expression level, #3 HY 18 hr: 0.60
  mRNA expression level, #3 NO: 0.68
  mRNA expression level, #4 HY 6 hr: 0.64
  mRNA expression level, #4 HY 18 hr: 0.73
  mRNA expression level, #4 NO: 0.60
  mRNA expression level, #5 HY 6 hr: 1.62
  mRNA expression level, #5 NO: 0.92
  mRNA expression level, #6 HY 6 hr: 3.97
  #6 HY 18 hr (mRNA expression level): 6.19
  mRNA expression level, #6 NO: 4.20
  #7 HY 6 hr (mRNA expression level): 0.42
  #7 HY 18 hr (mRNA expression level): 0.18
  #7 NO (mRNA expression level): 0.25
  #8 HY 6 hr (mRNA expression level): 3.63
  #8 HY 18 hr (mRNA expression level): 5.01
  #8 NO (mRNA expression level): 2.33
  #9 HY 6 hr (mRNA expression level): 0.80
  #9 HY 18 hr (mRNA expression level): 0.85
  #9 NO (mRNA expression level): 0.93
  #10 HY 6 hr (mRNA expression level): 0.61
  #10 HY 18 hr (mRNA expression level): 0.61
  #10 NO (mRNA expression level): 0.57
  #11 HY 6 hr (mRNA expression level): 1.37
  #11 HY 18 hr (mRNA expression level): 1.17
  #11 NO (mRNA expression level): 1.58
[11]
  HIGHEST FOLD CHANGE IN HYPOXIA (hr hypoxia + cell type): 2.15 (18 hr monocyte) fold

B4: p1F1 (nucleic acid, listed as Homo Sapiens)
DNA: TTTGTGTGGTCTTTTTTTTTTTTTCTCAGTGTTTTCAATTCCTCCTTGGTTGAATCCATGGATGCAAAACCCACAGATATGAAGGGCTGGCTATATATGCATTGATGATTGTCCTATTATATTAGTTATAAAGTGTCATTTAATATGTAGTGAAAGTTATGGTACAGTGGAAAGAGTAGTTGAAAACATAAACATTTGGGCCTTTCAAGAAAGGTAGCTTGGTGAAGTTTTTCACCTTCAAACTATGTCCCAGTCAGGG
  mRNA expression level, #1 HY 6 hr: 0.33
  mRNA expression level, #1 HY 18 hr: 0.52
  mRNA expression level, #1 NO: 0.58
  mRNA expression level, #2 HY 6 hr: 1.19
  mRNA expression level, #2 HY 18 hr: 1.14
  mRNA expression level, #2 NO: 1.42
  mRNA expression level, #3 HY 6 hr: 1.70
  mRNA expression level, #3 HY 18 hr: 1.49
  mRNA expression level, #3 NO: 1.64
  mRNA expression level, #4 HY 6 hr: 0.63
  mRNA expression level, #4 HY 18 hr: 0.54
  mRNA expression level, #4 NO: 0.95
  mRNA expression level, #5 HY 6 hr: 0.50
  mRNA expression level, #5 NO: 0.37
  mRNA expression level, #6 HY 6 hr: 0.61
  #6 HY 18 hr (mRNA expression level): 0.51
  mRNA expression level, #6 NO: 0.62
  #7 HY 6 hr (mRNA expression level): 0.90
  #7 HY 18 hr (mRNA expression level): 0.30
  #7 NO (mRNA expression level): 0.91
  #8 HY 6 hr (mRNA expression level): 0.53
  #8 HY 18 hr (mRNA expression level): 0.66
  #8 NO (mRNA expression level): 0.34
  #9 HY 6 hr (mRNA expression level): 1.23
  #9 HY 18 hr (mRNA expression level): 1.06
  #9 NO (mRNA expression level): 1.66
  #10 HY 6 hr (mRNA expression level): 1.58
  #10 HY 18 hr (mRNA expression level): 1.03
  #10 NO (mRNA expression level): 1.46
  #11 HY 6 hr (mRNA expression level): 1.24
  #11 HY 18 hr (mRNA expression level): 1.06
  #11 NO (mRNA expression level): 1.25
[11]
  HIGHEST FOLD CHANGE IN HYPOXIA (hr hypoxia + cell type): 1.96 (18 hr monocyte) fold
